Results from patent publication US20210213134.
Residue numbers refer to the chain shown, from its start.

B1: Azido-C35STRX (C35STRX with azido-PEG linkers on Lys residues, reduced) (protein)
chain: MVKQIESKTAFQEALDAAGDKLVVVDFSATWCGPSKMIKPFFHSLSEKYSNVIFLEVDVDDCQDVASECEVKCMPTFQFFKKGQKVGEFSGANKEKLEATINELV
B2: native human thioredoxin-1 (TRX) (protein)
chain: B1 chain with S35C

Molecular target: insulin (fully disulfide-bonded heterodimeric insulin)

Protein | activity in the insulin assay as compared to unreacted reduced C35STRX | insulin disulfide bond reduction activity
B1 | the conjugated material retained about 33% of its activity in the insulin assay as compared to unreacted reduced C35STRX | –
B2 | – | GSH is capable of restoring insulin disulfide bond reduction activity to oxidized TRX (FIG. 1)
